Consider 1 substance from patent US20020131964A1.

The target in assay [1] is two chain urokinase (tcuPA) (Homo sapiens (Human)) (UniProt P00749). Kind of assay: cell-based or functional assay.
Assay [2] concerns the target wild type single chain urokinase (scuPA) (Homo sapiens (Human)) (UniProt P00749). Nature of the assay: cell-based or functional assay.

Turning to “soluble recombinant human urokinase receptor (suPAR) (from UniProt Q03405 23-299)”, the EC50 of phenylepherine (PE)-induced contraction of rat aortic rings in assay [1] and in assay [2] was 29 nM throughout.
